The values that follow come from IntAct's records for PubMed 31515488.

To fix the notation:
B1: Dynein light chain 2, cytoplasmic (Homo sapiens), Q96FJ2 (parent)
chain: MSDRKAVIKNADMSEDMQQDAVDCATQAMEKYNIEKDIAAYIKKEFDKKYNPTWHCIVGRNFGSYVTHETKHFIYFYLGQVAILLFKSG
partner: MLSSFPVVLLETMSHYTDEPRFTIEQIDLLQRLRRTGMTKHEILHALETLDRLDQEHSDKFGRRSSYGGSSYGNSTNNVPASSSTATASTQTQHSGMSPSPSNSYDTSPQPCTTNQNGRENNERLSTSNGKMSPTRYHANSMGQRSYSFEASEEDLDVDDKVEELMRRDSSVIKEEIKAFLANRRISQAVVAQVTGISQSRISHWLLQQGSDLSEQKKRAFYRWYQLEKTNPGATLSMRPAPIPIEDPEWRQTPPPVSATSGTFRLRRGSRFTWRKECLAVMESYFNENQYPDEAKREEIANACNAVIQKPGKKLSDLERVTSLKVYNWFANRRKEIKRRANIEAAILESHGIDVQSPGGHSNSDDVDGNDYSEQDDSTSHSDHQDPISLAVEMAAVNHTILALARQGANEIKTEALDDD
B2: Angiomotin (Homo sapiens), Q4VCS5 (parent)
chain: MRNSEEQPSGGTTVLQRLLQEQLRYGNPSENRSLLAIHQQATGNGPPFPSGSGNPGPQSDVLSPQDHHQQLVAHAARQEPQGQEIQSENLIMEKQLSPRMQNNEELPTYEEAKVQSQYFRGQQHASVGAAFYVTGVTNQKMRTEGRPSVQRLNPGKMHQDEGLRDLKQGHVRSLSERLMQMSLATSGVKAHPPVTSAPLSPPQPNDLYKNPTSSSEFYKAQGPLPNQHSLKGMEHRGPPPEYPFKGMPPQSVVCKPQEPGHFYSEHRLNQPGRTEGQLMRYQHPPEYGAARPAQDISLPLSARNSQPHSPTSSLTSGGSLPLLQSPPSTRLSPARHPLVPNQGDHSAHLPRPQQHFLPNQAHQGDHYRLSQPGLSQQQQQQQQQHHHHHHHQQQQQQQPQQQPGEAYSAMPRAQPSSASYQPVPADPFAIVSRAQQMVEILSDENRNLRQELEGCYEKVARLQKVETEIQRVSEAYENLVKSSSKREALEKAMRNKLEGEIRRMHDFNRDLRERLETANKQLAEKEYEGSEDTRKTISQLFAKNKESQREKEKLEAELATARSTNEDQRRHIEIRDQALSNAQAKVVKLEEELKKKQVYVDKVEKMQQALVQLQAACEKREQLEHRLRTRLERELESLRIQQRQGNCQPTNVSEYNAAALMELLREKEERILALEADMTKWEQKYLEENVMRHFALDAAATVAAQRDTTVISHSPNTSYDTALEARIQKEEEEILMANKRCLDMEGRIKTLHAQIIEKDAMIKVLQQRSRKEPSKTEQLSCMRPAKSLMSISNAGSGLLSHSSTLTGSPIMEEKRDDKSWKGSLGILLGGDYRAEYVPSTPSPVPPSTPLLSAHSKTGSRDCSTQTERGTESNKTAAVAPISVPAPVAAAATAAAITATAATITTTMVAAAPVAVAAAAAPAAAAAPSPATAAATAAAVSPAAAGQIPAAASVASAAAVAPSAAAAAAVQVAPAAPAPVPAPALVPVPAPAAAQASAPAQTQAPTSAPAVAPTPAPTPTPAVAQAEVPASPATGPGPHRLSIPSLTCNPDKTDGPVFHSNTLERKTPIQILGQEPDAEMVEYLI
B3: 1-aminocyclopropane-1-carboxylate synthase-like protein 1 (Homo sapiens), Q96QU6 (parent)
chain: MFTLPQKDFRAPTTCLGPTCMQDLGSSHGEDLEGECSRKLDQKLPELRGVGDPAMISSDTSYLSSRGRMIKWFWDSAEEGYRTYHMDEYDEDKNPSGIINLGTSENKLCFDLLSWRLSQRDMQRVEPSLLQYADWRGHLFLREEVAKFLSFYCKSPVPLRPENVVVLNGGASLFSALATVLCEAGEAFLIPTPYYGAITQHVCLYGNIRLAYVYLDSEVTGLDTRPFQLTVEKLEMALREAHSEGVKVKGLILISPQNPLGDVYSPEELQEYLVFAKRHRLHVIVDEVYMLSVFEKSVGYRSVLSLERLPDPQRTHVMWATSKDFGMSGLRFGTLYTENQDVATAVASLCRYHGLSGLVQYQMAQLLRDRDWINQVYLPENHARLKAAHTYVSEELRALGIPFLSRGAGFFIWVDLRKYLPKGTFEEEMLLWRRFLDNKVLLSFGKAFECKEPGWFRFVFSDQVHRLCLGMQRVQQVLAGKSQVAEDPRPSQSQEPSDQRR
partner: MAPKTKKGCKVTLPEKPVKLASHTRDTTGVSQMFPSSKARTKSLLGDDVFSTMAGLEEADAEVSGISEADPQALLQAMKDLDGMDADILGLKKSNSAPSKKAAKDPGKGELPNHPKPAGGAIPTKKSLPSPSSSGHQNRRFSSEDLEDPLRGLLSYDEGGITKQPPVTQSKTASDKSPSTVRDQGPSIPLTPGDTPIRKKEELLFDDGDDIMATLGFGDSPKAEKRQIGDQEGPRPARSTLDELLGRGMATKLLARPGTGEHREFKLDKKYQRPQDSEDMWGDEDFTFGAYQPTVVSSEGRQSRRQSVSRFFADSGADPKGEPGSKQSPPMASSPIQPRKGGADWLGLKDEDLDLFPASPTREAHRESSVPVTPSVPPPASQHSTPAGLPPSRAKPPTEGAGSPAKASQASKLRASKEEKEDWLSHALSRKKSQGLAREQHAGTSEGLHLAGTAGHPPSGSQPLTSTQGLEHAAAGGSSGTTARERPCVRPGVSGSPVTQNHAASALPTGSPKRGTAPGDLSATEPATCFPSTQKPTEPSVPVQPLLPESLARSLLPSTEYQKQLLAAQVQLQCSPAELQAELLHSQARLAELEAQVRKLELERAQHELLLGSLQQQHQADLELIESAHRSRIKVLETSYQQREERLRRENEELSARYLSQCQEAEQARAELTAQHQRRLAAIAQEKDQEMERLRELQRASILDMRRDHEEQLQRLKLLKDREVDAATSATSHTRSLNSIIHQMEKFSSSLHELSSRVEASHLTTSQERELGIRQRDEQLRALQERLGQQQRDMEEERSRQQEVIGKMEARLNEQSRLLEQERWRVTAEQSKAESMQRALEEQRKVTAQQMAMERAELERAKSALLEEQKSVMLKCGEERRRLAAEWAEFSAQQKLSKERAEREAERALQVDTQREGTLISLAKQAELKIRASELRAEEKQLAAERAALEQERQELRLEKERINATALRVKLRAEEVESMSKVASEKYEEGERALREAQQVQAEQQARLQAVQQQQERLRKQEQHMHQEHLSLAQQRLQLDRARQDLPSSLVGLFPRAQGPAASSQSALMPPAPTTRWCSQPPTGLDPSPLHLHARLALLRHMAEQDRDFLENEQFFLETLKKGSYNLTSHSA
B4: G patch domain and ankyrin repeat-containing protein 1 (Homo sapiens), O95872 (parent)
chain: MSRPLLITFTPATDPSDLWKDGQQQPQPEKPESTLDGAAARAFYEALIGDESSAPDSQRSQTEPARERKRKKRRIMKAPAAEAVAEGASGRHGQGRSLEAEDKMTHRILRAAQEGDLPELRRLLEPHEAGGAGGNINARDAFWWTPLMCAARAGQGAAVSYLLGRGAAWVGVCELSGRDAAQLAEEAGFPEVARMVRESHGETRSPENRSPTPSLQYCENCDTHFQDSNHRTSTAHLLSLSQGPQPPNLPLGVPISSPGFKLLLRGGWEPGMGLGPRGEGRANPIPTVLKRDQEGLGYRSAPQPRVTHFPAWDTRAVAGRERPPRVATLSWREERRREEKDRAWERDLRTYMNLEF
B5: Gem-associated protein 6 (Homo sapiens), Q8WXD5 (parent)
chain: MSEWMKKGPLEWQDYIYKEVRVTASEKNEYKGWVLTTDPVSANIVLVNFLEDGSMSVTGIMGHAVQTVETMNEGDHRVREKLMHLFTSGDCKAYSPEDLEERKNSLKKWLEKNHIPITEQGDAPRTLCVAGVLTIDPPYGPENCSSSNEIILSRVQDLIEGHLTASQ

In one assay the parent is B1. The settings on record: with hmbx1_human HMBOX1, Q6NT76.
Consider E30D, for which the “effect of a mutation on the interaction” value is recorded as “with no effect”.

The variants in another assay derive from B2. The conditions noted are these: with maga4_human MAGEA4, P43358.
maga4_human MAGEA4, P43358, sequence (P43358 whole entry): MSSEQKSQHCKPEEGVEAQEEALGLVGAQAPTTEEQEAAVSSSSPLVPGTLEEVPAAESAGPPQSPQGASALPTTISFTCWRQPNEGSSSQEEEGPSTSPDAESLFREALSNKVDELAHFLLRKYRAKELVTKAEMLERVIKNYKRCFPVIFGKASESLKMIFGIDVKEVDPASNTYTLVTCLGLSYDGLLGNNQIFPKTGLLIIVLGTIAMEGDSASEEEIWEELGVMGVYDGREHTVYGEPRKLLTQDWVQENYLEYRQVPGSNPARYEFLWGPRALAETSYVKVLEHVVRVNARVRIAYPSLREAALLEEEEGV
On to T899A, for which the “effect of a mutation on the interaction” value is recorded as “with no effect”.

The variants in another assay derive from B2. The conditions noted are these: with UNC119, Q13432.
Consider A556V, for which the “effect of a mutation on the interaction” value is recorded as “with no effect”.

Variants of B2 are the subject of the next assay. The settings on record: with KRT15, P19012.
KRT15, P19012, sequence (P19012 whole entry): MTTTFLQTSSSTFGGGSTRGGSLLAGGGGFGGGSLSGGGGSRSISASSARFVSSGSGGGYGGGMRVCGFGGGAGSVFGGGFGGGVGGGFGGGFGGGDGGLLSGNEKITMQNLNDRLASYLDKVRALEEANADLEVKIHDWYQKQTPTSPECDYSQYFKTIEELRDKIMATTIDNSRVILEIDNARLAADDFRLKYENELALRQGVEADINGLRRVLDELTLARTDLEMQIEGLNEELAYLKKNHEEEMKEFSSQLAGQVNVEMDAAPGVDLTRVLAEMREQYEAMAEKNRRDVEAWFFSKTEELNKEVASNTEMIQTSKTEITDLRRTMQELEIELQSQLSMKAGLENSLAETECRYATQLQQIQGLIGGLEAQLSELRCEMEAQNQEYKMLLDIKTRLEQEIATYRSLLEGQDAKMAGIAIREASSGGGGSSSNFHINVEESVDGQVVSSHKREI
Consider A556V, for which the “effect of a mutation on the interaction” value was “with no effect”.

Another assay covers variants of B3. The conditions noted are these: with fbf1_human FBF1, Q8TES7.
For D59N, the “effect of a mutation on the interaction” value is on record as “with no effect”.

The variants in another assay derive from B3. The settings on record: with fbf1_human FBF1, Q8TES7. The source holds these as a separate data set.
With S393L, the “effect of a mutation on the interaction” value is listed as “with no effect”.

The variants in another assay derive from B4. The settings on record: with pnma1_human PNMA1, Q8ND90.
pnma1_human PNMA1, Q8ND90, sequence (Q8ND90 whole entry): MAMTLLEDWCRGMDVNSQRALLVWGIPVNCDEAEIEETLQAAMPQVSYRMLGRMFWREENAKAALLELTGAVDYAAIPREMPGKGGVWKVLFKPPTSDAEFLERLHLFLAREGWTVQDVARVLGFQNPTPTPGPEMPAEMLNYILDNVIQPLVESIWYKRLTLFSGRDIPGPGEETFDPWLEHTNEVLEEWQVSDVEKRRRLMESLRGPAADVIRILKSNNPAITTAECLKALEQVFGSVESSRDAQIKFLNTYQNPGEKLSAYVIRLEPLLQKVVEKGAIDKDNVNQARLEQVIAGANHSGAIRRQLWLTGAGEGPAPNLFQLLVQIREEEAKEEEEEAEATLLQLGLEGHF
R41L: the “effect of a mutation on the interaction” value is on record as “with no effect”.

Variants of B4 are the subject of a further assay. The conditions noted are these: with tri23_human TRIM23, P36406.
tri23_human TRIM23, P36406, sequence (P36406 whole entry): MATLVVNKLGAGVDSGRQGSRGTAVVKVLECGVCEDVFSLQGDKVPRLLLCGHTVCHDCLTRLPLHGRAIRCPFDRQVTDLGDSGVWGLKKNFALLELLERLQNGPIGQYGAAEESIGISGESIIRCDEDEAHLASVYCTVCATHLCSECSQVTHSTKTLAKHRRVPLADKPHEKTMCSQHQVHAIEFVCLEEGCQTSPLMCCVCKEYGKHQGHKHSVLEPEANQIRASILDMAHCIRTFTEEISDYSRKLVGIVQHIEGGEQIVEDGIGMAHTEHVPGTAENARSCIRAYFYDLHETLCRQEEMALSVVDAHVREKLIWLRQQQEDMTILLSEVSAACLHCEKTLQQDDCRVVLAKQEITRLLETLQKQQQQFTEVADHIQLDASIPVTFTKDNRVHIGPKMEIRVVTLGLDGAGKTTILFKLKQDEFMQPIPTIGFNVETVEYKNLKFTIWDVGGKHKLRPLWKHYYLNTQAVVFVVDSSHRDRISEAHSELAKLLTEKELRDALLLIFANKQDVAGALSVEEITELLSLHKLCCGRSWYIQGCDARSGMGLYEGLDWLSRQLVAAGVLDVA
On to D56E, for which the “effect of a mutation on the interaction” value is reported as “with no effect”.

A further assay covers variants of B5. The settings on record: with gemi7_human GEMIN7, Q9H840.
gemi7_human GEMIN7, Q9H840, sequence (Q9H840 whole entry): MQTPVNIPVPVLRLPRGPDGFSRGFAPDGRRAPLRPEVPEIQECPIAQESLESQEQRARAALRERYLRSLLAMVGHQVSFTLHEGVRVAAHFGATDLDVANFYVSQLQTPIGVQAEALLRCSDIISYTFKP
Take C91G: the “effect of a mutation on the interaction” value is given as “with no effect”.
Same read-out and setting: for V57L the value was “with no effect”; for S25N, “with no effect”.
In the case of G8S, the “effect of a mutation on the interaction” value is “with no effect”.
